Assay results: patent US9260500B2, “Peptide and use thereof” (Takeda Pharmaceutical Company Limited, priority 2009, dated 2016)
Starred links: 1 amine or outer side, 2 acyl side, 3 side chain; linkers in the order of their positions; H or OH if unused. Non-standard residues stand in square brackets, D forms with d. Ser(Me) = methylated serine, COC[C@H](N[*:1])C(=O)[*:2]; βHOAla = beta-homoalanine (β-HOAla), D- or L-form; Lys(Me2) = CN(C)CCCC[C@H](N)C(=O)O; Hyp = O=C(O)[C@@H]1C[C@@H](O)CN1; 4Pal = N[C@@H](Cc1ccncc1)C(=O)O; Cha = N[C@@H](CC1CCCCC1)C(=O)O; αMeP = C[C@@]1(C(=O)O)CCCN1; NMeS = CN[C@@H](CO)C(=O)O; Iva = CC[C@](C)(N)C(=O)O; Abu = CC[C@H](N)C(=O)O; Nleu = CC(C)CNCC(=O)O; Aib = CC(C)(N)C(=O)O

How the values were obtained:
human Y2 receptor [1] = target: T1, human Y2 receptor (Homo sapiens, UniProt P49146); experiment: Receptor Binding Assay (RBA) for Human Y2, [125I]-PYY displacement on hY2R/CHO membrane fraction; conditions: IC50 of test compound/IC50 of PYY(3-36) (PYY(3-36) taken as 1)
T1 construct: expressed in transfected cells; membrane fraction
T1 sequence (P49146 1-381): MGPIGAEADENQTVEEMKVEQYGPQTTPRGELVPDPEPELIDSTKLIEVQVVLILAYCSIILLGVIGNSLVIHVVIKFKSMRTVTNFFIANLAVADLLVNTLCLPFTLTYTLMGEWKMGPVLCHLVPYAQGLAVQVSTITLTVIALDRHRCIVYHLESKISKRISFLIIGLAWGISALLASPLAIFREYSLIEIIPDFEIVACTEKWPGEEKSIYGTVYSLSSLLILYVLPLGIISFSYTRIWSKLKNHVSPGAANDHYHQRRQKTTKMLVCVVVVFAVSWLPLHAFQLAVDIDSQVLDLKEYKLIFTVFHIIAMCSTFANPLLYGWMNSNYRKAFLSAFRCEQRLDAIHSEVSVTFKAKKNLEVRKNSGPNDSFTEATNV
Summary of the method: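 Read-out is [125I]-PYY displacement from membranes of CHO/dhfr− cells stably transfected with human Y2R. Membranes were obtained by disrupting cells in a buffer of 10 mM NaHCO3, 5 mM EDTA and protease inhibitors.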

human Y2 receptor [2] = target: T1, human Y2 receptor; experiment: Human Y2 Receptor G Protein Binding Assay (GBA), [35S]GTPγS; type: biochemical; conditions: EC50 of test compound/EC50 of PYY(3-36) (PYY3-36 taken as 1), hY2R/CHO membrane fraction
Summary of the method: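 Agonism measured as [35S]GTPγS binding, read by GF/C filtration and scintillation counting after 120 min at room temperature, using human Y2 membranes at 1 μg protein/mL in pH 7.4 Tris/MgCl2/NaCl/GDP buffer. Compound serially diluted 100 μM–1 nM; EC50 normalized to PYY(3-36) (ratio = compound/PYY).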

| RBA IC50 Ratio (human Y2 receptor [1]) | GBA EC50 Ratio (human Y2 receptor [2]) | Substance |
| --- | --- | --- |
| 7.3 | 5.0 | Ac-[Hyp23, D-Pro24, Cha27,28,36, Aib31]-PYY(23-36) (Ac-[Hyp][dP]RH[Cha][Cha]NL[Aib]TRQR[Cha]-NH2; SMILES CC(=O)N1C[C@H](O)C[C@H]1C(=O)N1CCC[C@@H]1C(=O)N[C@@H](CCCNC(=N)N)C(=O)N[C@@H](Cc1c[nH]cn1)C(=O)N[C@@H](CC1CCCCC1)C(=O)N[C@@H](CC1CCCCC1)C(=O)N[C@@H](CC(N)=O)C(=O)N[C@@H](CC(C)C)C(=O)NC(C)(C)C(=O)N[C@H](C(=O)N[C@@H](CCCNC(=N)N)C(=O)N[C@@H](CCC(N)=O)C(=O)N[C@@H](CCCNC(=N)N)C(=O)N[C@@H](CC1CCCCC1)C(N)=O)[C@@H](C)O) [compound No. 126] |
| 13 | 17 | Ac-[Iva23, D-Pro24, Cha27,28,36, Aib31]-PYY(23-36) (Ac-[Iva][dP]RH[Cha][Cha]NL[Aib]TRQR[Cha]-NH2; SMILES CC[C@](C)(NC(C)=O)C(=O)N1CCC[C@@H]1C(=O)N[C@@H](CCCNC(=N)N)C(=O)N[C@@H](Cc1c[nH]cn1)C(=O)N[C@@H](CC1CCCCC1)C(=O)N[C@@H](CC1CCCCC1)C(=O)N[C@@H](CC(N)=O)C(=O)N[C@@H](CC(C)C)C(=O)NC(C)(C)C(=O)N[C@H](C(=O)N[C@@H](CCCNC(=N)N)C(=O)N[C@@H](CCC(N)=O)C(=O)N[C@@H](CCCNC(=N)N)C(=O)N[C@@H](CC1CCCCC1)C(N)=O)[C@@H](C)O) [compound No. 178] |
| 1.2 | 1.0 | Ac-[Leu22, D-Pro24, Pya(4)26, Cha27,36, Aib28,31, Lys30]-PYY(22-36) (Ac-LS[dP]R[4Pal][Cha][Aib]NK[Aib]TRQR[Cha]-NH2; SMILES CC(=O)N[C@@H](CC(C)C)C(=O)N[C@@H](CO)C(=O)N1CCC[C@@H]1C(=O)N[C@@H](CCCNC(=N)N)C(=O)N[C@@H](Cc1ccncc1)C(=O)N[C@@H](CC1CCCCC1)C(=O)NC(C)(C)C(=O)N[C@@H](CC(N)=O)C(=O)N[C@@H](CCCCN)C(=O)NC(C)(C)C(=O)N[C@H](C(=O)N[C@@H](CCCNC(=N)N)C(=O)N[C@@H](CCC(N)=O)C(=O)N[C@@H](CCCNC(=N)N)C(=O)N[C@@H](CC1CCCCC1)C(N)=O)[C@@H](C)O) [compound No. 274] |
| 1.1 | 1.0 | Ac-[Lys22,30, D-Pro24, Pya(4)26, Cha27,36, Aib28,31]-PYY(22-36) (Ac-KS[dP]R[4Pal][Cha][Aib]NK[Aib]TRQR[Cha]-NH2; SMILES CC(=O)N[C@@H](CCCCN)C(=O)N[C@@H](CO)C(=O)N1CCC[C@@H]1C(=O)N[C@@H](CCCNC(=N)N)C(=O)N[C@@H](Cc1ccncc1)C(=O)N[C@@H](CC1CCCCC1)C(=O)NC(C)(C)C(=O)N[C@@H](CC(N)=O)C(=O)N[C@@H](CCCCN)C(=O)NC(C)(C)C(=O)N[C@H](C(=O)N[C@@H](CCCNC(=N)N)C(=O)N[C@@H](CCC(N)=O)C(=O)N[C@@H](CCCNC(=N)N)C(=O)N[C@@H](CC1CCCCC1)C(N)=O)[C@@H](C)O) [compound No. 272] |
| 0.92 | 1.3 | Ac-[Lys(Me2)23, D-Pro24, Cha27,28,36, Aib31]-PYY(23-36) (Ac-[Lys(Me2)][dP]RH[Cha][Cha]NL[Aib]TRQR[Cha]-NH2; SMILES CC(=O)N[C@@H](CCCCN(C)C)C(=O)N1CCC[C@@H]1C(=O)N[C@@H](CCCNC(=N)N)C(=O)N[C@@H](Cc1c[nH]cn1)C(=O)N[C@@H](CC1CCCCC1)C(=O)N[C@@H](CC1CCCCC1)C(=O)N[C@@H](CC(N)=O)C(=O)N[C@@H](CC(C)C)C(=O)NC(C)(C)C(=O)N[C@H](C(=O)N[C@@H](CCCNC(=N)N)C(=O)N[C@@H](CCC(N)=O)C(=O)N[C@@H](CCCNC(=N)N)C(=O)N[C@@H](CC1CCCCC1)C(N)=O)[C@@H](C)O) [compound No. 160] |
| 12 | 7.8 | Ac-[MeSer23, D-Pro24, Cha27,28,36, Aib31]-PYY(22-36) (Ac-A[NMeS][dP]RH[Cha][Cha]NL[Aib]TRQR[Cha]-NH2; SMILES CC(=O)N[C@@H](C)C(=O)N(C)[C@@H](CO)C(=O)N1CCC[C@@H]1C(=O)N[C@@H](CCCNC(=N)N)C(=O)N[C@@H](Cc1c[nH]cn1)C(=O)N[C@@H](CC1CCCCC1)C(=O)N[C@@H](CC1CCCCC1)C(=O)N[C@@H](CC(N)=O)C(=O)N[C@@H](CC(C)C)C(=O)NC(C)(C)C(=O)N[C@H](C(=O)N[C@@H](CCCNC(=N)N)C(=O)N[C@@H](CCC(N)=O)C(=O)N[C@@H](CCCNC(=N)N)C(=O)N[C@@H](CC1CCCCC1)C(N)=O)[C@@H](C)O) [compound No. 129] |
| 20 | 8.4 | Ac-[N(iBu)Gly24, Cha27,28,36, Aib31]-PYY(23-36) (Ac-S[Nleu]RH[Cha][Cha]NL[Aib]TRQR[Cha]-NH2; SMILES CC(=O)N[C@@H](CO)C(=O)N(CC(=O)N[C@@H](CCCNC(=N)N)C(=O)N[C@@H](Cc1c[nH]cn1)C(=O)N[C@@H](CC1CCCCC1)C(=O)N[C@@H](CC1CCCCC1)C(=O)N[C@@H](CC(N)=O)C(=O)N[C@@H](CC(C)C)C(=O)NC(C)(C)C(=O)N[C@H](C(=O)N[C@@H](CCCNC(=N)N)C(=O)N[C@@H](CCC(N)=O)C(=O)N[C@@H](CCCNC(=N)N)C(=O)N[C@@H](CC1CCCCC1)C(N)=O)[C@@H](C)O)CC(C)C) [compound No. 108] |
| 1.2 | 0.89 | Ac-[Phe22, D-Pro24, Pya(4)26, Cha27,36, Aib28,31, Lys30]-PYY(22-36) (Ac-FS[dP]R[4Pal][Cha][Aib]NK[Aib]TRQR[Cha]-NH2; SMILES CC(=O)N[C@@H](Cc1ccccc1)C(=O)N[C@@H](CO)C(=O)N1CCC[C@@H]1C(=O)N[C@@H](CCCNC(=N)N)C(=O)N[C@@H](Cc1ccncc1)C(=O)N[C@@H](CC1CCCCC1)C(=O)NC(C)(C)C(=O)N[C@@H](CC(N)=O)C(=O)N[C@@H](CCCCN)C(=O)NC(C)(C)C(=O)N[C@H](C(=O)N[C@@H](CCCNC(=N)N)C(=O)N[C@@H](CCC(N)=O)C(=O)N[C@@H](CCCNC(=N)N)C(=O)N[C@@H](CC1CCCCC1)C(N)=O)[C@@H](C)O) [compound No. 275] |
| 12 | 5.9 | Ac-[Phe23, D-Pro24, Abu26, Cha27,28,36, Aib31]-PYY(23-36) (Ac-F[dP]R[Abu][Cha][Cha]NL[Aib]TRQR[Cha]-NH2; SMILES CC[C@H](NC(=O)[C@H](CCCNC(=N)N)NC(=O)[C@H]1CCCN1C(=O)[C@H](Cc1ccccc1)NC(C)=O)C(=O)N[C@@H](CC1CCCCC1)C(=O)N[C@@H](CC1CCCCC1)C(=O)N[C@@H](CC(N)=O)C(=O)N[C@@H](CC(C)C)C(=O)NC(C)(C)C(=O)N[C@H](C(=O)N[C@@H](CCCNC(=N)N)C(=O)N[C@@H](CCC(N)=O)C(=O)N[C@@H](CCCNC(=N)N)C(=O)N[C@@H](CC1CCCCC1)C(N)=O)[C@@H](C)O) [compound No. 107] |
| 5.2 | 3.8 | Ac-[Ser(Me)23, D-Pro24, Abu26, Cha27,28,36, Aib31]-PYY(23-36) (Ac-[Ser(Me)][dP]R[Abu][Cha][Cha]NL[Aib]TRQR[Cha]-NH2; SMILES CC[C@H](NC(=O)[C@H](CCCNC(=N)N)NC(=O)[C@H]1CCCN1C(=O)[C@H](COC)NC(C)=O)C(=O)N[C@@H](CC1CCCCC1)C(=O)N[C@@H](CC1CCCCC1)C(=O)N[C@@H](CC(N)=O)C(=O)N[C@@H](CC(C)C)C(=O)NC(C)(C)C(=O)N[C@H](C(=O)N[C@@H](CCCNC(=N)N)C(=O)N[C@@H](CCC(N)=O)C(=O)N[C@@H](CCCNC(=N)N)C(=O)N[C@@H](CC1CCCCC1)C(N)=O)[C@@H](C)O) [compound No. 106] |
| 1.1 | 0.69 | Ac-[Thr23, D-Pro24, Pya(4)26, Cha27,36, Aib28,31, Lys30]-PYY(23-36) (Ac-T[dP]R[4Pal][Cha][Aib]NK[Aib]TRQR[Cha]-NH2; SMILES CC(=O)N[C@H](C(=O)N1CCC[C@@H]1C(=O)N[C@@H](CCCNC(=N)N)C(=O)N[C@@H](Cc1ccncc1)C(=O)N[C@@H](CC1CCCCC1)C(=O)NC(C)(C)C(=O)N[C@@H](CC(N)=O)C(=O)N[C@@H](CCCCN)C(=O)NC(C)(C)C(=O)N[C@H](C(=O)N[C@@H](CCCNC(=N)N)C(=O)N[C@@H](CCC(N)=O)C(=O)N[C@@H](CCCNC(=N)N)C(=O)N[C@@H](CC1CCCCC1)C(N)=O)[C@@H](C)O)[C@@H](C)O) [compound No. 211] |
| 2.8 | 1.3 | Ac-[αMePro24, Cha27,28,36, Aib31]-PYY(23-36) (Ac-S[αMeP]RH[Cha][Cha]NL[Aib]TRQR[Cha]-NH2; SMILES CC(=O)N[C@@H](CO)C(=O)N1CCC[C@@]1(C)C(=O)N[C@@H](CCCNC(=N)N)C(=O)N[C@@H](Cc1c[nH]cn1)C(=O)N[C@@H](CC1CCCCC1)C(=O)N[C@@H](CC1CCCCC1)C(=O)N[C@@H](CC(N)=O)C(=O)N[C@@H](CC(C)C)C(=O)NC(C)(C)C(=O)N[C@H](C(=O)N[C@@H](CCCNC(=N)N)C(=O)N[C@@H](CCC(N)=O)C(=O)N[C@@H](CCCNC(=N)N)C(=O)N[C@@H](CC1CCCCC1)C(N)=O)[C@@H](C)O) [compound No. 154] |
| 2.4 | 2.8 | Ac-[β-HOAla24, Pya(4)26, Cha27,36, Aib28,31, Lys30]-PYY(23-36) [compound No. 244] (Ac-S[βHOAla]R[4Pal][Cha][Aib]NK[Aib]TRQR[Cha]-NH2; also: former peak, β-HOAla D/L configuration not assigned) |
